Patent publication US7446175 (dated 2008)

Assays:
rabbit IL-1beta = molecular target: T1, rabbit IL-1beta (rabbit, UniProt P14628); experiment: SPR, 8 nM
T1 chain: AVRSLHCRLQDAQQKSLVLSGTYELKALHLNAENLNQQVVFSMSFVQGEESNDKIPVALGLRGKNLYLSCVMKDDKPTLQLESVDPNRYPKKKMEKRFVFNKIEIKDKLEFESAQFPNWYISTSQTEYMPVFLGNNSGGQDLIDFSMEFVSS

rhesus IL-1beta = molecular target: T2, rhesus IL-1beta (rhesus monkey, UniProt P79182)
T2 chain: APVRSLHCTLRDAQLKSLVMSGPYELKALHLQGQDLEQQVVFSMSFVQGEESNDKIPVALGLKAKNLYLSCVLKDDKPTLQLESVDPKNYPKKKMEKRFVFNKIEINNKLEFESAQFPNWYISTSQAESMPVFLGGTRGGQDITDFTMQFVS

mouse IL-1beta = molecular target: T3, mouse IL-1beta (mouse, UniProt P10749); experiment: SPR, 8 nM
T3 chain: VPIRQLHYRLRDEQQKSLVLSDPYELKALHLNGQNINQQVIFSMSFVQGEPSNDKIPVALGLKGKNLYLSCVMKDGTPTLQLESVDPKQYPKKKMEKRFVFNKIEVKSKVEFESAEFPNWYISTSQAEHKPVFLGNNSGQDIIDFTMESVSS

human IL-1Ra = human IL-1Ra (human, UniProt P18510); experiment: SPR, 8 nM
rat IL-1beta = molecular target: T4, rat IL-1beta (rat, UniProt Q63264); experiment: SPR, 8 nM
T4 chain: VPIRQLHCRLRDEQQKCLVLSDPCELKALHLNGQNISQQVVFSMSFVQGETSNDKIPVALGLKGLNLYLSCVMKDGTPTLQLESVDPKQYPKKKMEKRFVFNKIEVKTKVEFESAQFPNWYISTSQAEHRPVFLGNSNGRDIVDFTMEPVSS

Measured: binding result

B1: ACZ885 (antibody, V domains shown)
VH: QVQLVESGGGVVQPGRSLRLSCAASGFTFSVYGMNWVRQAPGKGLEWVAIIWYDGDNQYYADSVKGRFTISRDNSKNTLYLQMNGLRAEDTAVYYCARDLRTGPFDYWGQGTLVTVSS
VL: EIVLTQSPDFQSVTPKEKVTITCRASQSIGSSLHWYQQKPDQSPKLLIKYASQSFSGVPSRFSGSGSGTDFTLTINSLEAEDAAAYYCHQSSSLPFTFGPGTKVDIK
no binding: rabbit IL-1beta | rhesus IL-1beta | mouse IL-1beta | human IL-1Ra | rat IL-1beta
